Substrate in series [1]: O=C(O)[C@@H]1CCCN1
The experiment in a line: cells, lysate or membranes. The note with it: transport Km, Na+-free, pH 5.5, about 22 °C, labelled compound, a second Km was measured by TEVC at -60 mV.

Substrate in series [2]: N[C@@H](CO)C(=O)O
The series can be described thus: cells, lysate or membranes. The following applies: transport Km, Na+-free, pH 5.5, about 22 °C, labelled compound, 0.01-20 mM serine.

B1: CG1139 (Drosophila melanogaster) (protein)
chain: MNDDIKTVTVYPTTLELTTPTKSANGSNDDYDPHQHRELKNPTTNFQTFAHFLKASVGTGVLAMPSAFAHAGYVNGTLLTLIIGSLALYCLHILIKCMYILCKRQRVPYVSFSQAMNLGLKQGPPWLRCLAPIAVPFVDGFLAFYHFGICCVYVVFIAESIKQLVDEYLVVWDVRIHMCIIIVPLLLIYSIKNLKLLAPFSSAANLLLLVGFGIILYYIFEELPPLSERDPFVAAGKLPTFFGTVLFALEAVGVILAIEENMATPKSFVGPCGILNSGMSIVLGLYVLLGFFGYWKYGNESEGSITLNIPQSEIPAQVVKVFFAITTWISYALQGYVTAHILWDKYLAKRFKETRQTFYELIFRAIIVLLTFGCAVAIPDLSVFLSLVGSFCLSILGLIFPVLLQICVQYTEGYGPFRIKLIINLLLLCFGIFGGVVGTYVSILDIIAVYK
As to B1, the Km amounted to 1030 ± 180 µM in series [1] and 1310 ± 120 µM in series [2].

B2: PAT2 (SLC36A2) (Rattus norvegicus; F159I) (protein)
chain: MSVTKSAGSPQVAATVKLDLVSFPESAKKVQSQDPNPVNGSSSESSEKTKGITGFQTLVHLVKGNMGTGILGLPLAVKNAGILMGPLSLLVMGLIACHCMHILVRCAQRFCHRLNKPFMDYGDTVMHGLASSPNTWLQSHAHWGRHAVSFFLIVTQLGICCVYIVFLADNLKQVVEAVNSTTISCHKNETVVLTPTIDSRLYMLAFLPVLGLLVFIRNLRVLTIFSLLANVSMLVSLVIIGQYIIQGIPDPSQLPLVASWKTYPLFFGTAIFSFESIGVVLPLENKMKDARRFPTILSLGMSIITTLYIAIGALGYLRFGDDIKASITLNLPNCWLYQSVKLLYVVGILCTHALQFYVPAEIIIPLAVSQVSKRWALPVDLSIRLALVCVTCMLAILIPRLDLVLSLVGSVSSSALALIIPPLLEVTTYYGEGMSPLTITKDALISILGFMGFVVGTYQALDELIRSGNSLPLSNSTMFIQ
As to B2, the Km in series [2] came out at 823 ± 202 µM.

The record behind these values is PMC5809530, “Resculpting the binding pocket of APC superfamily LeuT-fold amino acid transporters” (Cellular and Molecular Life Sciences: CMLS, 2017).
